From patent publication US20230407401A1 (NATIONAL INSTITUTE OF IMMUNOLOGY, published 2023)

Molecular target: T1, S35 methionine radiolabelled BLM (in vitro translated) (UniProt P54132 1-1417, limits assumed, S35 methionine radiolabel)
T1 construct: also called in vitro translated BLM; radioactive BLM
Experiment: in vitro interaction of S35 methionine radiolabelled BLM with bound GST SMAD3, autoradiography
Method: H. BLM directly interacted with SMAD3 and HDAC1. (Top) In vitro interactions were carried out with S35 methionine radiolabelled BLM and bound (left) GST and GST SMAD3, (right) GST and GST HDAC1. Post-interaction the bound radioactive BLM was detected by autoradiography. (Bottom) Inputs used for in vitro translated BLM (detected by autoradiography) and GST, GST SMAD3, GST HDAC1 (detected by Coomassie). The

T1 sequence (P54132 whole entry): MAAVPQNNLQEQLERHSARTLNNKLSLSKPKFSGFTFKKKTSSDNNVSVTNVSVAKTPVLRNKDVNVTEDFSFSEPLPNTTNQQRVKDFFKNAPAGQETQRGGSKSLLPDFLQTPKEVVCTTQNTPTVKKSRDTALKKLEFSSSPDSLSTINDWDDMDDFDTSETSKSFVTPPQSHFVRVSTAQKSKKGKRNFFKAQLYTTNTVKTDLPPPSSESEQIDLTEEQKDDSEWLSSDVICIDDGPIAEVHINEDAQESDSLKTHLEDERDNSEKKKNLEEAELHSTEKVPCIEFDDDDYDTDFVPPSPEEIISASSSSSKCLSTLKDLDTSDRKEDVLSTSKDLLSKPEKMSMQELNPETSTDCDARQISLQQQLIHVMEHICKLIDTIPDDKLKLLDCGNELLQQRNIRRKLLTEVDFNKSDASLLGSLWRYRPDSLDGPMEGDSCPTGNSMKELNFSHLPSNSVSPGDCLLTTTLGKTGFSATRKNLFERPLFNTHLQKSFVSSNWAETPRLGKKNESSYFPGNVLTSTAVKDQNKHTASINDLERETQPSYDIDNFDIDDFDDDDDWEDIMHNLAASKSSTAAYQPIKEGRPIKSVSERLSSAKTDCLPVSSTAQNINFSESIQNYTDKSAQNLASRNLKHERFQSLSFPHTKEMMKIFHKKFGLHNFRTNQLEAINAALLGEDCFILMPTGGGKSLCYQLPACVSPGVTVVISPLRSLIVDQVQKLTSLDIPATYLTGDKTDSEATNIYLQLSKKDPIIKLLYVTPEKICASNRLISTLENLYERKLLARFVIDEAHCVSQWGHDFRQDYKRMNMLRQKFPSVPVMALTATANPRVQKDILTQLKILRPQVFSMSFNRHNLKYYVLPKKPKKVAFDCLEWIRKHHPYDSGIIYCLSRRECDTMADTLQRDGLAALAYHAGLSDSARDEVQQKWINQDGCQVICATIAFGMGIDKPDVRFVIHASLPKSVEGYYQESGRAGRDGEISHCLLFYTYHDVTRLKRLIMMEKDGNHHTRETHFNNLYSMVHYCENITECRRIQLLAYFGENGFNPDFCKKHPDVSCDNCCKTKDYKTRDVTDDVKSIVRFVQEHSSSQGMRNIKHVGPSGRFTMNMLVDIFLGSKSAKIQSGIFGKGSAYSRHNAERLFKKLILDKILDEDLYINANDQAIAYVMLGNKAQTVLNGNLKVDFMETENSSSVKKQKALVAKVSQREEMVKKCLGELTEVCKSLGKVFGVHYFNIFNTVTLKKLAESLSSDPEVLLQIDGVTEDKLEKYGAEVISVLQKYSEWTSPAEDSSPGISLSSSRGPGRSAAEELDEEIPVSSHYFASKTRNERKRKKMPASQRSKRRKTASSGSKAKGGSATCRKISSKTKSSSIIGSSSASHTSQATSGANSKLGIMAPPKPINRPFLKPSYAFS

binding result: binds
B1: GST SMAD3 (WT) (other, UniProt P84022 1-425, looked up)
chain: MSSILPFTPPIVKRLLGWKKGEQNGQEEKWCEKAVKSLVKKLKKTGQLDELEKAITTQNVNTKCITIPRSLDGRLQVSHRKGLPHVIYCRLWRWPDLHSHHELRAMELCEFAFNMKKDEVCVNPYHYQRVETPVLPPVLVPRHTEIPAEFPPLDDYSHSIPENTNFPAGIEPQSNIPETPPPGYLSEDGETSDHQMNHSMDAGSPNLSPNPMSPAHNNLDLQPVTYCEPAFWCSISYYELNQRVGETFHASQPSMTVDGFTDPSNSERFCLGLLSNVNRNAAVELTRRHIGRGVRLYYIGGEVFAECLSDSAIFVQSPNCNQRYGWHPATVCKIPPGCNLKIFNNQEFAALLAQSVNQGFEAVYQLTRMCTIRMSFVKGWGAEYRRQTVTSTPCWIELHLNGPLQWLDKVLTQMGSPSIRCSSVS
notes: also called pGEX6-SMAD3 WT; not shown: Glutathione S-transferase tag of the pGEX6 vector
